To fix the notation:
B1: CPEB3 Ribozyme (parent)
chain: UAACAGGGGGCCACAGCAGAAGCGUUCACGUCGCAGCCCCUGUCAGAUUCUGGUGAAUCUGCGAAUUCUGCUGUAUAUCUC

The variants in the data set derive from B1. Briefly: self-cleavage, relative activity (ratio to wild type); higher = more cleavage; in vitro, sequencing. In short, it runs like this: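 Relative activity was defined as the cleaved/total read fraction for a variant divided by the same fraction for the unmutated ribozyme. CPEB3 self-cleaving ribozyme libraries were made by rounds of error-prone PCR, barcoded, and transcribed in vitro with T7 RNA polymerase for 5 hours at 37°C, and cleavage ran through transcription plus a 15 min DNase I step before EDTA. Illumina sequencing of template-switched reverse transcripts gave the reads, and DNA sequencing mapped the barcodes. Averages come from three batches, using variants with at least 5 reads.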
Regarding UAACGGGGGGCCACAGCAGAAGCGUUCACGUCGCUGCCCCUGUCAGAUUCUGGUGAAUCUGCGAAUUCUGCUGUAUAUCUC [A5G A35U], the self-cleavage amounted to 0.36.
On to UAACAGGGGGCCACAGCAGAAGCGUUCGCGUCGCAACCCCUGUCAGAUUCUGGUGAAUCUGCGAAUUCUGCUGUAUAUCUC [A28G G36A], for which the self-cleavage was determined as 0.15.
With UAACAGGGGGCCACAGCAGAAGCGUUCACGUCGCAGCCCCUGAUAGAUUCUGGUGAAUCUGCGAAUUCUGCUGUAUAUCUC [U43A C44U], the self-cleavage is 1.11.
Consider UAACAGGGGGCCACAGCAGAAGCGUUCACGUCGCAGCCCCUGUCAGAUUCUGGUGAAUCUGCUAAUUCUGCUGUAUAUCUC [G63U], for which the self-cleavage came out at 1.09.
For the variant UAGCAGGGGGCCACAGCAGAAGCGUUCACGUCGCAGCCCCGGUCAGAUUCUGGUGAAUCUGCGAAUUCUGCUGUAUAUCUC [A3G U41G], the self-cleavage was 0.17.
On to UAACAGGGGGCCACAGCAGAAGCGUUCACAACGCAGCCCCUGUCAGAUUCUGGUGAAUCUGCGAAUUCUGCUGUAUAUCUC [G30A U31A], for which the self-cleavage came to 0.32.
In the case of UAACAGGGGGCCACAGCAGAAGCGUUCACGUCGCAGCCCCUGUCAGAUUCUGGUGAAUCUGCGAAUUCUGCUGGACAUCUC [U74G U76C], the self-cleavage was found to be 1.16.
The result for UAACAGGGGGCCACAGCAGAAGCGUUCACGUCGCAGCCCCAGUCAGAUUCUGGUGAAUCUGCGAAUACUGCUGUAUAUCUC [U41A U67A] reads 0.36.
Turning to UAACAGGGGGCCACAGCAGAAGCGUUCACGUAGCAGCCCCUGUCAGAUUCUGGUGAAUCUACGAAUUCUGCUGUAUAUCUC [C32A G61A], the self-cleavage was 0.19.
For UAAUAGGGGGCCACAGCAGAAGCGUUCACGUCGCAGCCCCUGUCAGAUUCUGGUGAAUCUGCGAAUUCUGCAGUAUAUCUC [C4U U72A], the self-cleavage is 1.01.
To UAUCAGGGGGCCACAGCAGAAGCGUUCACGUCGCAGCCCCAGUCAGAUUCUGGUGAAUCUGCGAAUUCUGCUGUAUAUCUC [A3U U41A] belongs 0.31; to UAACAGGGGGCCACAGCAGAAGCGUUCACGUCGCAGCCCCUGUCAGAUUCUGGUGAAUCUGCGAAUUCUUCUGUAUAUCAC [G70U U80A], 0.67; to UAACAGGGGGCCACAGCAGAAGCGUUCACGUCGCAUCCCCUGUCAGAUUCUGGUGAAUUUGCGAAUUCUGCUGUAUAUCUC [G36U C59U], 0.16.
UAACAGGGGGCCACAGCAGAAGCGUUCACGUCGCAGCCCCUGUCAGAUUCUAGUGAAUCUGCGAAUUCUGCUGUAUAACUC [G52A U78A]: the self-cleavage turned out to be 1.19.
For the variant UAACAGGGGGCCACAGCGGAAGCGUUCACGUCGCAGACCCUGUCAGAUUCUGGUGAAUCUGCGAAUUCUGCUGUAUAUCUC [A18G C37A], the self-cleavage was 0.32.
Consider UAGCAGGGGGCCACAGCAGAAGCGUUCACGUCGCAGCCCCUGUCAGAUUCUGGUGAUUCUGCGAAUUCUGCUGUAUAUCUC [A3G A57U], for which the self-cleavage is 0.69.
Regarding UAACAGGGGGCCACAGCAGAAGCGUUCACGUCGCAGACCCUGUCAGAUUCUGGUGAAUCUGCGAAUCCUGCUGUAUAUCUC [C37A U67C], the self-cleavage came out at 0.13.
For UAACAGGGGGCCACAGCAGAAGCGUUCACGUCGCAGACCCUGUCAGAUUCUGGUGAAUCUGCGAAUGCUGCUGUAUAUCUC [C37A U67G], the self-cleavage worked out at 0.17.
UAACAGGGGGCCACAGCAGAAGCGUUCACGUCGCAGCCCCUGUCAGACUCUGGUGAAUUUGCGAAUUCUGCUGUAUAUCUC [U48C C59U]: the self-cleavage amounted to 0.39.
Consider UAACAGGGGGCCACAGCAGAAGCGUUCACGUCGCAGCCCCUGUCAGAUUCUGGUGAAUCAGCGAGUUCUGCUGUAUAUCUC [U60A A65G], for which the self-cleavage turned out to be 0.34.
As for UAACGGGGGGCCACAGCAGAAGCGUUCACUUCGCAGCCCCUGUCAGAUUCUGGUGAAUCUGCGAAUUCUGCUGUAUAUCUC [A5G G30U], the self-cleavage is 0.11.
To UAACAGGGGGCCACAGCAGAAGCGUUCAUUUCGCAGCCCCUGUCAGAUUCUGGUGAAUCUGCGAAUUCUGCUGUAUAUCUC [C29U G30U] belongs 0.23.
UAACAGAGGGCCACAGCAGAAGCGUUCACGUCGCAGCCCCUGUCAGAUUCUGGUGAAUCUGCGUAUUCUGCUGUAUAUCUC [G7A A64U]: the self-cleavage stood at 0.18.
UAAAAGGGGGCCACAGCAGAAGCGUUCACGUCGCAGCCCCUGUCAGAUUCUGGUGAAUCUGUGAAUUCUGCUGUAUAUCUC [C4A C62U]: the self-cleavage was 0.23.
Turning to UAACAGGGGGCCACAGCAGAAGCGUUCACGUCGCAACCCCUGUCAGAUUCUGGUGAAUCUCCGAAUUCUGCUGUAUAUCUC [G36A G61C], the self-cleavage was found to be 0.16.
Regarding UAACAGGGGGCCACAGCAGAAGCGUUCACGUCGCAGCCCCUGUCCGAUUCUGGUGAAUCUGCGAAUUUUGCUGUAUAUCUC [A45C C68U], the self-cleavage amounted to 0.28.
With UAACAGGGGGCCACAGCAGAAGCGCUCACGUCGCAGCACCUGUCAGAUUCUGGUGAAUCUGCGAAUUCUGCUGUAUAUCUC [U25C C38A], the self-cleavage amounted to 0.18.
As for UAACAGGGGGCCACAGCAGAAGCGUUCACGUCGCAGCCCCUGUCAGAUUCUGCUGAAUCUGCGAAUUCUGCUGUAUACCUC [G53C U78C], the self-cleavage amounted to 1.08.
In the case of UAACAUGGGGCCACAGCAGAAGCGCUCACGUCGCAGCCCCUGUCAGAUUCUGGUGAAUCUGCGAAUUCUGCUGUAUAUCUC [G6U U25C], the self-cleavage is 0.37.
For UAACAGGGGGCCACAGCUGAAGCGUUCACGUCGCAGCCCCUGGCAGAUUCUGGUGAAUCUGCGAAUUCUGCUGUAUAUCUC [A18U U43G], the self-cleavage amounted to 0.14.
To UAACAGGGGGCCACAGCAGAAGCGUUCACGUCGCAGCCCCUGUCAUAUUCUGGUGAAUCUGCGAAUUCUGCUGUCUAUCUC [G46U A75C] belongs 0.37; to UAACAGGGGGCCAAAGCAGAAGCGUUCACGUCGCAGCCCCUGUCAGAUUCUGGUGAAUCUGCUAAUUCUGCUGUAUAUCUC [C14A G63U], 1.14; to UAACAGGGGGCCACAGCAGAAGCGUUCACGUCGCAGUCCGUGUCAGAUUCUGGUGAAUCUGCGAAUUCUGCUGUAUAUCUC [C37U C40G], 0.22.
For UAACAGGGGGCCACAGCAGAAGCGUUCACGUCGCAGCCCCUGACAGAUUCUGAUGAAUCUGCGAAUUCUGCUGUAUAUCUC [U43A G53A], the self-cleavage turned out to be 1.2.
